Assay: yeast display, Sf9 membrane polyspecificity reagent, FACS + sequencing; frameworks hold sequencing errors
Outline: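 Nanobodies came from a synthetic yeast display library in Saccharomyces cerevisiae BJ5465, induced with galactose for 36–48 hours and stained for 1 hour at 4 °C with 10% biotinylated, detergent-solubilized Sf9 membrane reagent. Cells were enriched on streptavidin microbeads and then FACS-sorted, with low and high (top ~1%) gates set on anti-HA fluorescence for expression and streptavidin fluorescence for reagent binding. Each polyreactivity label reflects the gate a clone came from. Genes were amplified by colony PCR, sequenced by MiSeq 2 × 250 and filtered by CDR length.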

| Sequence | polyreactivity (PSR sort gate) |
| --- | --- |
| QVQLVESGGGLVQAGGSLRLSCAASGLTFYTYPMGWYRQAPGKERELVAAISSGGSTNYADSVKGRFTISRDNAKNTVYLQMNSLTPEDTAVYYCAADPSYFTYFSFDLSESDYWGKGTQVTVSS | low polyreactivity |
| QVQLVESGGGLVQAGGSLRLSCAASGLTFYVYAMGWYRQAPGKERELVAAISSGGRTYYADSVKGRFTISRDNAKNTVYLQMNSLKPEDTAVYYCAAVRHRNYGYWGQGTQVTVSS | high polyreactivity |
| QVQLVESGGGLVQAGGSLRLSCAASGLTFYYYAMGWYRQAPGKERELVAAISRSGGSTYYADSVKGRFTISRDNAKNTVYLQMNSLKPEDTAVYYCAAYGPASVYEVAMDYWGQGTQVTVSS | high polyreactivity |
| QVQLVESGGGLVQAGGSLRLSCAASGLTFYYYTMGWYRQAPGKERELVAAITSGGSTYYADSVKGRFTISRDNAKNTVYLQMNSLKPEDTAVYDCAAVPSRYGRYRYYYWGQGTQVTVSS | high polyreactivity |
| QVQLVESGGGLVQAGGSLRLSCAASGLTIITNAMGWYRQAPGKERELVAAISGTGGSTYYADSVKGRFTISRDNAKNTVYLQMNSLKPEDTAVYYCAAAPYTFWVGDSWGQGTQVTVSS | high polyreactivity |
| QVQLVESGGGLVQAGGSLRLSCAASGLTILDNAMGWYRQAPGKERELVATISGGGSTYYADSVKGRFTISRDNAKNTVYLQMNSLKPEDTAVYYWNAAYVGGPWWYRYTYNYWGQGTQVTVSS | low polyreactivity |
| QVQLVESGGGLVQAGGSLRLSCAASGLTIRYYAMGWYRQAPGKERELVAAITRGGSTYYADSVKGRFTISRDNAKNTVYLQMNSLKPDDTAVYYCAAYDVRYNTYDYDYWGQGTQVTVSS | high polyreactivity |
| QVQLVESGGGLVQAGGSLRLSCAASGLTIWRYAMGWYRQAPGKEREFVATISQNGGRTYYADSVKGRFTISRDNAKNTVYLQMQSLKPEDTAVYYCAADDWRWGYDYWGQGTQVTVSS | high polyreactivity |
| QVQLVESGGGLVQAGGSLRLSCAASGLTLAWYAMGGYRQAPGKERELVAAISWSGDSTYYADSVKGRFTISRDNAKNTVYLQMNSLKPEDTAVYYCATRVYGGYGYWGQGTQVTVSS | high polyreactivity |
| QVQLVESGGGLVQAGGSLRLSCAASGLTLRRYAMGWYRQAPGKEREMVASINSGTSTKYADSVKGRFTISRDNAKNTVYLQMNSLKPEDTAVYYCGAAGYFPTAGSRRAYYYWGQGTQVSVSS | high polyreactivity |
| QVQLVESGGGLVQAGGSLRLSCAASGLTLTYYAMGWYRQAPGKERELVAAISRSGGSTHYADSVKGRFTISRDNAKNTVYLQMNSLKPEDTAVYYCNAQQGRYWSAKGYDYWGQGTQVTVSS | high polyreactivity |
| QVQLVESGGGLVQAGGSLRLSCAASGLTLYRNAMGWYRPAPGKVRELVAAITKSGARTYYADSVKGRFTISRDNAKNTVYLQMNSLKPEDTAVYYCAADALNTYNYWGQGTQVTVSS | high polyreactivity |
| QVQLVESGGGLVQAGGSLRLSCAASGLTLYYYAMGWYRQAPGKERELVAAISYSGGSTYYADSVKGRFTISRDNAKNTVYLQMNSLKPEDTAVYYCAADGDSDIRDDYWGQGTQVTVSS | low polyreactivity |
| QVQLVESGGGLVQAGGSLRLSCAASGLTSTDNAMGWYRQAPGKERELVAGITTGGSTYYADSVKGRFTISRDNAKNTVYLQMNSLKPEDTAVYYCNAPTYADTTYDYWGQGTQVTVSS | low polyreactivity |
| QVQLVESGGGLVQAGGSLRLSCAASGMGWYRQAPGKERELVARISGGVSTNYADSVKGRFTISRDNAKNTVYLQMNSLKPEDTAVYYCAADPLDTYDYWGQGTQVTVSS | low polyreactivity |
| QVQLVESGGGLVQAGGSLRLSCAASGMICGVYAMGWYRQAPGKERELVAAIDGNGSSTYYADSVKGRFTISRDNAKNTVYLQMNSLKPEDTAVYYCAAGYWSYLYYWYDFDYWGQGTQVTVSS | low polyreactivity |
| QVQLVESGGGLVQAGGSLRLSCAASGMIFSDYSMGWYRQATGKERELVATITRSVRTSYADSVKGRFTISSDNAKNTVYLQMNSLKPEDTAVYYCNADVVGAVIAFDYWGQGTQVTVSS | low polyreactivity |
| QVQLVESGGGLVQAGGSLRLSCAASGMTFSKYVMGWYRQAPGKERELVAAITWSGGRTYYADSVKGRFTISRDNAKNTVYLQMNSLKPEDTAVYYCNSKLKGLGYEYDYWGQGTQVTVSS | high polyreactivity |
| QVQLVESGGGLVQAGGSLRLSCAASGNAMGWYRQAPGKERDLVAAITRRGGSTYYADSVKGRFTISRDNAKNTVYLQMNSLKPEDTAVYYCAADNPSYNLWYGYWGQGTQVTVSS | low polyreactivity |
| QVQLVESGGGLVQAGGSLRLSCAASGNAMGWYRQAPGKERELVAAITRRGGSTYYADSVKGRFTISRDNAKNTVYLQMNSLKPEDTAVYYCAAENPSYNLCYGYWGQGTQVTVSS | low polyreactivity |
| QVQLVESGGGLVQAGGSLRLSCAASGNHLRSLSLGWNRQAPGKQRELVAAITSSGASTYYADSVKGRFTNSRDNAKNSVYLQMNSLKPEDSAVYYCAAYLFRRYDYWGQGTQVSVSS | low polyreactivity |
| QVQLVESGGGLVQAGGSLRLSCAASGNIFDLYAMGWYRQAPGKERELVAAITRSSSRTYYADSVKGRFTISRDNAKNTVYLQMNSLKPEDTAVYYCNKRWITSYYTRYDYWGQGTQVTVSS | high polyreactivity |
| QVQLVESGGGLVQAGGSLRLSCAASGNIFDPYAMGWYIQAPGKERELVAVINASGDSTYYADSVKGRFTISRDNAKNTVYLQMNSLKPEDTAVYYCAADHRGEYDYWGQGTQVTVSS | low polyreactivity |
| QVQLVESGGGLVQAGGSLRLSCAASGNIFEYYAMGWYRQAPGKERELVATITSGGSTNYADSVKGRFTISRDNAKNTVYLQMNSLKPEDTAVYYCNADIISVSVYYFIVEYDYWGQGTQVTVSS | low polyreactivity |
| QVQLVESGGGLVQAGGSLRLSCAASGNIFFGNTMGWYRQAPGKERELVAAISRSGGSTYYADSVKGRFTISRDNAKNTVYLQMNSLKPEDTAVYYCAAEYYGWPYDSWGQGTQVTVSS | high polyreactivity |
| QVQLVESGGGLVQAGGSLRLSCAASGNIFFSNAMGWYRQAPGKERELVASISQSGGSTYYADSVKGRFTISRDNAKNTVYLQMNSLKPEDTAVFYCAATQVRRGPAWGRDYWGQGTQVTVSS | low polyreactivity |
| QVQLVESGGGLVQAGGSLRLSCAASGNIFFTNAMGWYRQAPGKERELVATISFRGTSTYYADSVKGRFTISRDNAKKTVYLQMNSLKPEDTAVYYCAARYSVFHRARVNLLGWGLYYWGQGTQVTVSS | low polyreactivity |
| QVQLVESGGGLVQAGGSLRLSCAASGNIFGDYAMGWYRQAPGKERELVAAITQTGGNTYYADSVKGRFTISRDNAKNTVYLQMNSLKPEDTAVYYCNKVSVVYSRSKGFYYTYLKYEYWGQGTQVTVSS | low polyreactivity |
| QVQLVESGGGLVQAGGSLRLSCAASGNIFGENAMGWYRQAPGKERELVAAITRIDGNTYYADSVKGRVTISRDNAKNTVYLQMNSLKPEDTAVYYCATDEPVGRYQHNYYWGQGTQVTVSS | low polyreactivity |
| QVQLVESGGGLVQAGGSLRLSCAASGNIFGFNAMGWYRQAPGKERELVAAINSGGSTYYADSVKGRFTISRDNAKNTLYLQMNSLKPEDTAVYYCAAVRGKYRFGFWGQGTQVTVSS | high polyreactivity |

Reference: the nanobody polyreactivity screen of Harvey et al. (2022)
